B1: TPR t1 (parent)
chain: GACCAAUCUGCCCUCAGAGCUCGAGAACAUCUUCGGAUGCAGAGGAGGCAGGCUUCGGUGGCGCGAUAGCGCCAACGUCCUCAACCUCCAAUGCAUCCCACCACAUGAUGAUGCCUGAAGAGCCUUGGUUUUUUG

Variants of: B1
Test: polymerase ribozyme fitness, log enrichment relative to wild type (log ratio); higher = more active; in vitro selection for triplet polymerase activity
Procedure, shortened: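 Each subunit of a heterodimeric triplet polymerase ribozyme was mutagenized into a library by PCR, transcribed, and subjected to one round of in vitro selection, run in triplicate. Libraries were annealed with a biotinylated primer, the partner subunit and triplets, incubated frozen at −7 °C, and extended constructs were gel-excised, captured on streptavidin beads and recovered by RT-PCR. Input and output libraries were sequenced on Illumina, keeping genotypes with ≥10 input reads and ≥1 read per output. Fitness is log base 2 of genotype enrichment divided by wild-type enrichment, from inverse-variance-weighted replicate averages.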

| Variant | polymerase ribozyme fitness (log ratio) |
| --- | --- |
| G57U G63C A95C U112A G117A | -4.01 |
| C56U U92G | -2.12 |
| C56U U92A | -2.86 |
| U59A C124U | 1.47 |
| G58C U59G A95U G122A | -0.6 |
| U59C G120A | 0.486 |
| C56U G127C | -1.62 |
| C56U G127A | -1.2 |
| G58C U109G G117A | -5.76 |
| G57U A95U A121U C124U | 1.18 |
| G58U A68G | -3.5 |
| C56U U106A G120A | 0.351 |
| G58A G71A C89A C123A | -3.72 |
| G57C C114G U131C | -2.69 |
| G58C C76G G77U | -0.291 |
| G57A G63U G122A | -2.81 |
| G57A C72U G113A C114U | -2.53 |
| G58U U81A C124A | 1.33 |
| G58A G122A | -0.321 |
| G58A A83U U106A | -1.14 |
| G57C G61U U96G | -1.85 |

| Variant | polymerase ribozyme fitness (log ratio) |
| --- | --- |
| C56U G122A | -0.36 |
| U59C G71C | -3.63 |
| G57U C104A U106C U125A U131C | -1.82 |
| G58U G60U C80U U87A C89U | -3.57 |
| G57C U125A | -0.636 |
| G58C U67C A100U G120C | -6.28 |
| G57C G120U C124U | 0.197 |
| U59C A83U C94A C115U | -4.3 |
| G58U G60A G77U | 0.541 |
| G57U G71A C104A U106C U125A U131C | -3.71 |
| G58C G60C | -0.636 |
| G58C C98G G120C C123U | -6.14 |
| G57U G122A | -1.56 |
| C56U G113U C123G U130G | -2.36 |
| C56U G135C | 0.59 |
| C56U G135A | -0.436 |
| G57C A100U U112C U125C | 0.722 |
| G58C C102A G120A | -2.34 |
| G57A C64U U78C U87C C104U G113A | -1.61 |
| G58C U112C C114U | -1.68 |
| U59A C62G | -5.21 |

| Variant | polymerase ribozyme fitness (log ratio) |
| --- | --- |
| G58C G71U A74G C85A A90C | -3.43 |
| C56U G128C | -2.63 |
| G57U G128A | -1.33 |
| G58C C62A C114A G127A U130G | -6.59 |
| G57U C89A | -1.5 |
| G57C G61U | -0.733 |
| G57U U87G G113A C123U | -1.98 |
| U59C U81G | -3.51 |
| G57A C62G | -3.37 |
| G57A U106G A121C | -0.75 |
| G58U G61A U131G | -0.481 |
| G57A C76U A90U | -1.14 |
| G58A G60C | -0.284 |
| U59C A83U | -0.619 |
| G57U G135U | -0.352 |
| G58A C101U G120U | -0.534 |
| G57A G71U C88G | -5.05 |
| U59A G117U | -2.68 |
| G57C G71U G113C | -3.12 |
| G57U C98U G110A U112G | -5.09 |
| U59A G128A | -1.96 |

| Variant | polymerase ribozyme fitness (log ratio) |
| --- | --- |
| C56U G110U | -0.767 |
| G58U C73A | -0.295 |
| G57U C72U G110C | -4.22 |
| G58A C124A | 2.39 |
| G57U A119U G120U | -0.267 |
| U59A G93C C114U | -2.6 |
| G57U U87A A90C C101U C114U U125A | -4.29 |
| G57C G110A | -1.6 |
| G58C C97U | -0.321 |
| G57U C72U C102A | -2.25 |
| C56U U129C | -0.507 |
| U59A A75U C86A C115G U116A G117A | -5.94 |
| G58C A83C | 0.207 |
| U59A A90G C123U | 1.4 |
| U59C A111U A118U | -4.73 |
| G58A G63A C98U U112A | -4.56 |
| G57A G69U C86A C101G | -2.75 |
| G58A U130G | -0.629 |
| G58C G120U | 0.305 |
| G57C U106A U112A | 1.17 |
| U59C C80A U81C | -3.7 |
